What was measured:
[1] = target: His-tagged recombinant TbHpHbR (T. brucei haptoglobin-hemoglobin complex receptor, without the signal sequence) (Trypanosoma brucei brucei GUTat 3.1); experiment: SPR; quantitative: Biacore X, His-tagged receptor immobilised on CM5 (rTcHpHbR 800 RU, rTbHpHbR 480 RU), 30 μl/min, free-Hb and free-Hp 0.0001-10 μM; Kd = dissociation rate constant / association rate constant
[2] = target: His-tagged recombinant TcHpHbR (T. congolense haptoglobin-hemoglobin complex receptor, without the signal sequence) (Trypanosoma congolense IL3000); experiment: as above

Molecule	Kd [1]	Kd [2]
bovine hemoglobin (free-Hb), from bovine erythrocytes (from UniProt P01966 1-142; P02070 1-145) (ligand)	5300 nM	20.5 nM
haptoglobin (free-Hp) (ligand) chain 1: VETGSEATADSCPKAPEIANSHVEYSVRYQCDKYYKLHAGNGVYTFNNKQWINKDIGQQLPECEEDDSCPEPPKIENGYVEYLVRYQCKPYYTLRTCGDGVYTFNSKKQWINKNIGQKLPECEAVCGKPKHPVDQVQ chain 2: IIGGSLDAKGSFPWQAKMVSQHNLISGATLINERWLLTTAKNLYLGHSSDKKAKDITPTLRLYVGKNQLVEVEKVVLHPDHSKVDIGLIKLRQKVPVNDKVMPICLPSKDYVKVGRVGYVSGWGRNENFNFTEHLKYVMLPVADQDKCVKHYEGVDAPKNKTAKSPVGVQPILNENTFCVGLSKYQDDTCYGDAGSAFVVHDKEDDTWYAAGILSFDKSCAVAEYGVYVKVTSILDWVRKTIANN	1800 nM	220 nM
